The values below come from patent US8197839B2, “Sustained release delivery system” (Virbac Corporation, priority 2001, dated 2012).

The assay is described as follows: Feed conversion efficiency in pigs after sub-cutaneous implantation of rPST compressed tablets, 0-7 days. Particulars: 0-7 days (Table 6). It is filed as in vivo. From the text:
A number of the compressed tablets were implanted via sub-cutaneous injection in pigs.

B1: PST Injection A: daily injection of porcine somatotropin, 5 mg/day, comparator (source A) (protein, UniProt P01248 27-216, looked up)
Somatotropin: FPAMPLSSLFANAVLRAQHLHQLAADTYKEFERAYIPEGQRYSIQNAQAAFCFSETIPAPTGKDEAQQRSDVELLRFSLLLIQSWLGPVQFLSRVFTNSLVFGTSDRVYEKLKDLEEGIQALMRELEDGSPRAGQILKQTYDKFDTNLRSDDALLKNYGLLSCFKKDLHKAETYLRVMKCRRFVESSCAF
The molecule B1 gave an FCR of 1.97, a Feed intake of 16.33 kgs and a Weight increase of 8.30 kgs.

B2: PST Injection M: daily injection of porcine somatotropin, 5 mg/day, comparator (source M) (protein, UniProt P01248 27-216, looked up)
Somatotropin: FPAMPLSSLFANAVLRAQHLHQLAADTYKEFERAYIPEGQRYSIQNAQAAFCFSETIPAPTGKDEAQQRSDVELLRFSLLLIQSWLGPVQFLSRVFTNSLVFGTSDRVYEKLKDLEEGIQALMRELEDGSPRAGQILKQTYDKFDTNLRSDDALLKNYGLLSCFKKDLHKAETYLRVMKCRRFVESSCAF
In the case of B2, the FCR turned out to be 1.78, the Feed intake was found to be 16.78 kgs and the Weight increase is on record as 9.43 kgs.
